PMC10343166, “Structure of puromycin-sensitive aminopeptidase and polyglutamine binding” (PLOS ONE, 2023)

Legend:
[1] = target: T1, Puromycin-sensitive aminopeptidase F433A mutant, with C-terminal polyhistidine sequence (human, UniProt P55786 1-919, F433A); test: competitive inhibition of enzyme activity (Dixon plots); apparent Ki from inhibition of Ala-4MβNA cleavage at increasing peptide concentrations; 20 mM HEPES pH 7.0, 2 mM BME, 37°C; 20 μM (PSA^wt) or 100 μM (PSA^F433A) Ala-4MβNA; triplicate; conditions: both partners purified
T1 construct: Human puromycin-sensitive aminopeptidase (PSA, NPEPPS), UniProt P55786, with F433A; also called PSA^F433A

[2] = target: T2, Puromycin-sensitive aminopeptidase, wild type, with C-terminal polyhistidine sequence (kinetic studies) (human, UniProt P55786 1-919); test: as above; conditions: both partners purified
T2 construct: Human puromycin-sensitive aminopeptidase (PSA, NPEPPS), UniProt P55786; also called PSA^wt; wild type PSA
T2 sequence (P55786 whole entry): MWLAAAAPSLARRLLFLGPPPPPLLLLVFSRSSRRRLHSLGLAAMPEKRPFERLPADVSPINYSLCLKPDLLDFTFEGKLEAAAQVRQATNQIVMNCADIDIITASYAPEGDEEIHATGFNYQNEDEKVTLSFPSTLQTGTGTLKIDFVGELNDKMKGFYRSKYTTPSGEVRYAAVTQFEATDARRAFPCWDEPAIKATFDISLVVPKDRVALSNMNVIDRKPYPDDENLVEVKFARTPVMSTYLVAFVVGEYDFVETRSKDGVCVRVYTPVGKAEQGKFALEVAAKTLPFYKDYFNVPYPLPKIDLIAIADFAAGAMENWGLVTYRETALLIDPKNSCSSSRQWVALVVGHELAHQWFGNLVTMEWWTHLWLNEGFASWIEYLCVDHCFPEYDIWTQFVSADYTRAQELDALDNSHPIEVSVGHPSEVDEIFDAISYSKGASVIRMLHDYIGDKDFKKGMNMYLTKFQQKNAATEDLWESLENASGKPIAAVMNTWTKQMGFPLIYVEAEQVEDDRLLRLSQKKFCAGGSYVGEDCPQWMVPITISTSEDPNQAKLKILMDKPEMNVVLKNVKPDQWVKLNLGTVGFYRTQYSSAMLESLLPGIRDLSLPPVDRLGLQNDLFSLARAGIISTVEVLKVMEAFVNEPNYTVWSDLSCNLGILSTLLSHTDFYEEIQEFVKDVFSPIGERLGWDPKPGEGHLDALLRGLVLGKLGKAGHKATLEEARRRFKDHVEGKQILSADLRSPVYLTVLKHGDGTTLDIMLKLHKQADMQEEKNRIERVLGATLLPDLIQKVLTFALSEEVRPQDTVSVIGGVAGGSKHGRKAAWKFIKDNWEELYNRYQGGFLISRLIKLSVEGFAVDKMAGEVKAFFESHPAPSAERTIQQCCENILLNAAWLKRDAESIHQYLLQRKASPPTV

T1 sequence (P55786 whole entry F433A): as the sequence (P55786 whole entry) above, with F433A counted along it

B1: Polyglutamine peptide Lys2Gln15Lys2 (peptide)
peptide: KKQQQQQQQQQQQQQQQKK
notes: Printed as Lys2Gln15Lys2 (19-mer); In PDB 8SW1 only 6 residues are modelled, deposited as polyalanine; also called PQ; PQ peptide; source: synthetic peptide, bought: Peptidogenic Research and Co; purified (TFA/hexafluoro-2-propanol, centrifugation)
With B1 the Ki [1] was 4.9 µM and the Ki [2] was 1.3 µM.
